Article PMC9788556, “Nanobodies against Pfs230 block Plasmodium falciparum transmission” (Biochemical Journal, 2022)

B5: Pfs230 Pro-D1D2 (aa 532–889) (domain or fragment, Plasmodium falciparum, UniProt P68874 532-889, looked up)
chain: DGENVIKIIRSVLQSGALPSVGVDELDKIDLSYETTESGDTAVSEDSYDKYASNNTNKEYVCDFTDQLKPTESGPKVKKCEVKVNEPLIKVKIICPLKGSVEKLYDNIEYVPKKSPYVVLTKEETKLKEKLLSKLIYGLLISPTVNEKENNFKEGVIEFTLPPVVHKATVFYFICDNSKTEDDNKKGNRGIVEVYVEPYGNKINGCAFLDEDEEEEKYGNQIEEDEHNEKIKMKTFFTQNIYKKNNIYPCYMKLYSGDIGGILFPKNIKSTTCFEEMIPYNKEIKWNKENKSLGNLVNNSVVYNKEMNAKYFNVQYVHIPTSYKDTLNLFCSIILKEEESNLISTSYLVYVSINEELN
notes: Pfs230 of Plasmodium falciparum (PF3D7_0209000), amino acids 532-889: a part of the prodomain and 6-cys domains D1 and D2; used untagged; source: Sf21 insect cells (baculovirus), secreted, purified (Ni-NTA, TEV cleavage, SEC); not shown: His8, N-terminal, cleaved
B9: Pfs230 D1D2 (aa 587–889) (domain or fragment, Plasmodium falciparum, UniProt P68874 587-889, looked up)
chain: TNKEYVCDFTDQLKPTESGPKVKKCEVKVNEPLIKVKIICPLKGSVEKLYDNIEYVPKKSPYVVLTKEETKLKEKLLSKLIYGLLISPTVNEKENNFKEGVIEFTLPPVVHKATVFYFICDNSKTEDDNKKGNRGIVEVYVEPYGNKINGCAFLDEDEEEEKYGNQIEEDEHNEKIKMKTFFTQNIYKKNNIYPCYMKLYSGDIGGILFPKNIKSTTCFEEMIPYNKEIKWNKENKSLGNLVNNSVVYNKEMNAKYFNVQYVHIPTSYKDTLNLFCSIILKEEESNLISTSYLVYVSINEELN
notes: used untagged; also called first two 6-cys domains of Pfs230; source: Sf21 insect cells (baculovirus), secreted, purified (Ni-NTA, TEV cleavage, SEC); not shown: His8, N-terminal, cleaved

Tests used:
Conditions in all cases: both partners purified
Pfs230 D1D2 (aa 587–889) [1] = target: B9; assay: far-Western, overlay or dot blot; western blot: 250 ng untagged Pfs230 D1D2 separated on a 4–12% Bis-Tris gel in non-reducing conditions, on PVDF, probed with 0.5 µg/ml nanobody overnight at 4°C
Pfs230 D1 (aa 587–731) = target: T1, Pfs230 D1 (aa 587–731) (Plasmodium falciparum 3D7, UniProt P68874); assay: BLI; Octet RED96e; monomeric nanobodies (5 µg/ml) on Ni-NTA sensor tips; untagged Pfs230 D1D2 6 to 200 nM or untagged Pfs230 D1 0.8 to 100 nM; PBS pH 7.4, 0.1% BSA, 0.05% TWEEN-20, 25°C; global 1 : 1 fit
T1 construct: used untagged; also called first 6-cys domain of Pfs230; source: Sf21 insect cells (baculovirus), secreted, purified (Ni-NTA, TEV cleavage, SEC); not shown: His8, N-terminal, cleaved

Pfs230 D1D2 (aa 587–889) [2] = target: B9; assay: as above
[3] = target: B5; assay: SEC; size shift assay: Pfs230 Pro-D1D2 or Pfs230 D1D2 incubated with nanobodies or LMIV230-01 at different molar ratios for 1 h on ice; SD200 3.2/300 column, 20 mM HEPES pH 7.5, 150 mM NaCl
F5-Fc = target: T2, F5-Fc (alpaca); assay: BLI; Octet RED96e; nanobody-Fc or LMIV230-01 (5 µg/ml) on anti-hIgG Fc capture sensor tips; untagged Pfs230 D1D2 or Pfs230 Pro-D1D2 3 to 100 nM or 94–3000 nM; PBS pH 7.4, 0.1% BSA, 0.05% TWEEN-20, 25°C; global 1 : 1 fit
T2 construct: as the VHH of m13 (nanobody F5); also called F5 nanobody-Fc fusion; source: HEK293, transient transfection, purified from supernatant (HiTrap PrismA, SEC)

Pfs230 D1D2 (aa 587–889) [4] = target: B9; assay: far-Western, overlay or dot blot; western blot: 250 ng untagged Pfs230 D1D2 separated on a 4–12% Bis-Tris gel in reducing conditions, on PVDF, probed with 0.5 µg/ml nanobody overnight at 4°C
F10-Fc = target: T3, F10-Fc (alpaca); assay: BLI; Octet RED96e; nanobody-Fc or LMIV230-01 (5 µg/ml) on anti-hIgG Fc capture sensor tips; untagged Pfs230 D1D2 or Pfs230 Pro-D1D2 3 to 100 nM or 94–3000 nM; PBS pH 7.4, 0.1% BSA, 0.05% TWEEN-20, 25°C; global 1 : 1 fit
T3 construct: as the VHH of m14 (nanobody F10); also called F10 nanobody-Fc fusion; source: HEK293, transient transfection, purified from supernatant (HiTrap PrismA, SEC)

B1: nanobody A10 (VHH)
VHH: QVQLQESGGGLVQAGSSLRLSCAASGGTFSNYAMGWFRQAPGKEREFVAAIGWSGGTYYTDSVEGRFTISRDNAKNTVYLQMNSLKPEDTAVYYCAAKRSGSSWSERGYDYWGQGTQVTVSS
notes: From a phage display library (pMES4) of an alpaca immunized with Pfs230 D1D2; source: E. coli WK6, periplasmic extract, purified (HisTrap)
Does B1 bind (Pfs230 D1D2 (aa 587–889) [1])?
Result: binds

Does B1 bind (Pfs230 D1 (aa 587–731))?
Result: binds

B2: nanobody D11 (VHH)
VHH: QVQLQESGGGLVQAGSSLRLSCAASGRTFSSYAMGWFRQAPGKEREFVAAIGWSGGTYYTDSVEGRFTISRDNAENTVYLQMNSLKPEDTAVYYCAAKASGSSWSERGYDYWGQGTQVTVSS
notes: as for B1
Does B2 bind (Pfs230 D1D2 (aa 587–889) [2])?
Result: binds

Does B2 bind (Pfs230 D1 (aa 587–731))?
Result: binds

B3: nanobody G5 (VHH)
VHH: QVQLQESGGGLVQAGGSLRLSCAASGRTFNDYAMYWFRQAPGKEREFVADITWSGSSTYYADSVKGRFTISRDNAKNTVFLQMNSLKPEDTALYYCAADSRYYGIGIGTPRYWGQGTQVTVSS
notes: as for B1
Does B3 bind (Pfs230 D1D2 (aa 587–889) [1])?
Result: binds

Does B3 bind (Pfs230 D1 (aa 587–731))?
Result: binds

B4: nanobody F5 (VHH)
VHH: QVQLQESGGGLVQPGGSLRLSCAASGFTLDRYAIGWFRQAPGKEREGVSCISSSDGSTYYADSVKGRFTISRDNAKNTVYLQMNSLKPEDTAVYYCARDHGPCTVLADILYDYGMDYWGKGTQVTVSS
notes: From a phage display library (pMES4) of an alpaca immunized with Pfs230 D1D2; also called anti-Pfs230 F5; source: E. coli WK6, periplasmic extract, purified (HisTrap)
For B4, which “stoichiometry N” value [3] is on record?
Its value is 1.

With B5 as the binder, how does the Kd (F5-Fc) read?
Its Kd is 118 nM.

B6: nanobody D6 (VHH)
VHH: QVQLQESGGGLVQAGDSLRLSCAASGRTFSSYFMGWFRQAPGKEREFVAAISWSGGSTYYADSVKGRFTISRDNVKNTVYLQMNSLEPEDAAVYYCAGGGSYYPMSPRNGMDYWGKGTQVTVSS
notes: as for B1
What does the source list for B6?
binding result (Pfs230 D1D2 (aa 587–889) [4]): binds; binding result (Pfs230 D1 (aa 587–731)): binds

B7: nanobody F10 (VHH)
VHH: QVQLQESGGGLVQAGGSLRLSCAASGRTFSDYFMGWFRQAPGKEREFVAAVSWSGGSTYYADSVKGRFTISRDNAKNTVFLQMNSLKPEDTAVYYCAGGGSYYPMSPYDGMDYWGKGTQVTVSS
notes: From a phage display library (pMES4) of an alpaca immunized with Pfs230 D1D2; also called anti-Pfs230 F10; source: E. coli WK6, periplasmic extract, purified (HisTrap)
With B7 as the binder, how does the “stoichiometry N” value [3] read?
The value was 1.

B8: nanobody D1 (VHH)
VHH: QVQLQESGGGLVQAGDSLRLSCTASGRTFSNHAMGWFRQAPGKEREIVAVIFGTGRNSWYVDSVKGRFTISRDNAKNTVALQMNRLKPEDTAVYYCASGRTWYSGSSMAEYDYWGQGTQVTVSS
notes: Not to be confused with the D1 domain of Pfs230; From a phage display library (pMES4) of an alpaca immunized with Pfs230 D1D2; also called D1 (nanobody); source: E. coli WK6, periplasmic extract, purified (HisTrap)
Does B8 bind (Pfs230 D1 (aa 587–731))?
Result: binds

Which Kd (F10-Fc) does the source give for B9 here?
The Kd was 0.13 nM.

And the Kd (F5-Fc)?
The Kd was 0.57 nM.

B10: nanobody B4 (VHH)
VHH: QVQLQESGGGLVQPGGSLRLSCAASGFTLDYYGIGWFRQAPGKEREGVSCISSSDGSTYYADSVKGRFTISRDNAKNTVYLQMNSLKPEDTAVYYCAADLTGIGCTTAQAMGVIGDFGDFGSWGQGTQVTVSS
notes: as for B1
What does the source list for B10?
binding result (Pfs230 D1D2 (aa 587–889) [2]): binds; binding result (Pfs230 D1 (aa 587–731)): binds

B11: nanobody E11 (VHH)
VHH: QVQLQESGGGLVQPGGSLRLSCAASGFTSDYYGIGWFRQAPGKEREGVACISSSDGSTYYADSVKGRSTISRDNAKNTVYLQMNSLKPEDTAVYYCAADLSGIGCTTAQAMDVIGDFGDFGSWGQGTQVTVSS
notes: as for B1
What does the source list for B11?
binding result (Pfs230 D1D2 (aa 587–889) [2]): binds; binding result (Pfs230 D1 (aa 587–731)): binds

B12: nanobody A11 (VHH)
VHH: QVQLQESGGGLVQPGESLRLSCAASGRTSSSYAMGWFRQAPGKEREFVASISWSGGSTYYADSVKGRFTLSRDNAKNTVYLQMNSLKPEDTAVYYCAADGIFYSDYPLSVDDFHSWGQGTQVTVSS
notes: as for B1
Does B12 bind (Pfs230 D1D2 (aa 587–889) [4])?
Result: binds

Does B12 bind (Pfs230 D1 (aa 587–731))?
Result: binds

B13: nanobody E1 (VHH)
VHH: QVQLQESGGGLVQPGGSLRLSCAASGRTFSSYFMGWFRQAPGKGRVFVASISWSGGSTYYADSVKGRFTISRDNAENTVYLQMNSLKPEDTAVYYCAAGTRATPLDWASGMDYWGKGTQVTVSS
notes: as for B1
Does B13 bind (Pfs230 D1D2 (aa 587–889) [2])?
Result: binds

Does B13 bind (Pfs230 D1 (aa 587–731))?
Result: binds

B14: nanobody G2 (VHH)
VHH: QVQLQESGGGLVQAGGSLRLSCAASGRTFSNYFMGWFRQAPGKEREFVAAVSWSGGSTYYADSVKGRLTISRDNAKNTVYLQMNSLKPEDTAVYYCAAGERYFPMEPRRGYDYWGQGTQVTVSS
notes: as for B1
What does the source list for B14?
binding result (Pfs230 D1D2 (aa 587–889) [1]): binds; binding result (Pfs230 D1 (aa 587–731)): binds
